Paper PMC3836765

What was measured:
[1] = target: MDM2 (human (endogenous in SJSA-1)) (UniProt Q00987)
[2] = target: MDMX (human (endogenous in SJSA-1)) (UniProt O15151)
[3] = target: MDM2 (human (endogenous in SJSA-1)) (UniProt Q00987); remark: listed apart in the source
[4] = target: MDMX (human (endogenous in SJSA-1)) (UniProt O15151); remark: listed apart in the source
[5] = target: MDM2 (human (endogenous in SJSA-1)) (UniProt Q00987); remark: listed apart in the source
[6] = target: MDMX (human (endogenous in SJSA-1)) (UniProt O15151); remark: listed apart in the source

MDM2 (human (endogenous in SJSA-1)), sequence (Q00987 whole entry): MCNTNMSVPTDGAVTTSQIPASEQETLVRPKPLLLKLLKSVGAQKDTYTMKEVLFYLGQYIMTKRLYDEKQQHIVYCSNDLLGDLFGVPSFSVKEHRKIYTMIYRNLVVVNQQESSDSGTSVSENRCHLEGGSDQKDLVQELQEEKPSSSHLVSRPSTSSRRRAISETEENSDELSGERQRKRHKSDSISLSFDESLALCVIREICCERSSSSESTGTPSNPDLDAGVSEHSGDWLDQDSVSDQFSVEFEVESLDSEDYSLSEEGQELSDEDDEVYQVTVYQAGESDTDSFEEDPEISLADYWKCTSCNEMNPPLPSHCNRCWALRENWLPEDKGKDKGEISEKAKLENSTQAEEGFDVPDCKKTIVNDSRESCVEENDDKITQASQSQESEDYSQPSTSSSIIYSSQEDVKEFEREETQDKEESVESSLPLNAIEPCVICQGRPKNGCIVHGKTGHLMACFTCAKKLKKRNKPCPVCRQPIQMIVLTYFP
MDMX (human (endogenous in SJSA-1)), sequence (O15151 whole entry): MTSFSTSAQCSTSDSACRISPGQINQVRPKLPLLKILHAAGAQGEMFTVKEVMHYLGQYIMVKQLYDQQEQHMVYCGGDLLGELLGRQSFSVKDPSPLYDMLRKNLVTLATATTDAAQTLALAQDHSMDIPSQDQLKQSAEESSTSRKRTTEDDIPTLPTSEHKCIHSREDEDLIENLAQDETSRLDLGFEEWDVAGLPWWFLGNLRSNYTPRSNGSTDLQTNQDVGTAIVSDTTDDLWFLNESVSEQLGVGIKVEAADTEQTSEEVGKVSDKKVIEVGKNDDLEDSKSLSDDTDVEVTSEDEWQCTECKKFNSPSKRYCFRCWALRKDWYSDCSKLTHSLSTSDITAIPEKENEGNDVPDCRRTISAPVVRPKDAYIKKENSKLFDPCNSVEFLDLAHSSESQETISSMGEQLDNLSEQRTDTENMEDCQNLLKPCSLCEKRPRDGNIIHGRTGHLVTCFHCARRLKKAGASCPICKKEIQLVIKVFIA

p53 protein level in SJSA-1 cells after 24 h with 10 uM protein, Western blot densitometry, fold increase [3] | p53 protein level in SJSA-1 cells after 24 h with 10 uM protein, Western blot densitometry, fold increase [4] | caspase activation in SJSA-1 cells, Homogeneous Caspase Assay, 24 h, fold change [5] | caspase activation in SJSA-1 cells, Homogeneous Caspase Assay, 24 h, fold change [6] | Substance | cytotoxicity in SJSA-1 cells, CyQuant Assay, 24 h, percent cell death relative to 10 uM rHSA-treated cells (concentrations as indicated in Figure 4A) [1] | cytotoxicity in SJSA-1 cells, CyQuant Assay, 24 h, percent cell death relative to 10 uM rHSA-treated cells (concentrations as indicated in Figure 4A) [2]
1.5 fold | 1.5 fold | < 2 fold | < 2 fold | recombinant human serum albumin fused at its C-terminus to the wild type p53-derived peptide P53i (rHSA-P53i), biotinylated (from UniProt P02768 25-608) | 60 % cell death | 60 % cell death
2.9 fold | 2.9 fold | 7 fold | 7 fold | recombinant human serum albumin fused at its C-terminus to the MDM2/MDMX-binding peptide N8A-PMI (rHSA-PMI), biotinylated (from UniProt P02768 25-608) | 84 % cell death | 84 % cell death
